US10130693B2, “Peptides, combination of peptides and scaffolds for use in immunotherapeutic treatment of various cancers” (Immatics Biotechnologies GmbH, priority 2015, dated 2018)

Assays:
[1] = biological target: HLA-A*02:01 (Homo sapiens, UniProt P04439, D140Y/D185E/D98H/E176V/E277Q/G131W/G231S/I119V/I121R/I166T/I218V/L300P/L318F/N151K/N90K/P208A/P217A/Q86G/Q94H/R138H/R169H/T345S); test: MHC binding assay, UV-ligand exchange with beta2m ELISA (exchange yield), HLA-A*02; settings: binding to HLA-A*02 ranged by peptide exchange yield
Text: Candidate peptides for T cell based therapies according to the present invention were further tested for their MHC binding capacity (affinity). The individual peptide-MHC complexes were produced by UV-ligand exchange, where a UV-sensitive peptide is cleaved upon UV-irradiation, and exchanged with the peptide of interest as analyzed. Only peptide candidates that can effectively bind and stabilize the peptide-receptive MHC molecules prevent dissociation of the MHC complexes. To determine the yield of the exchange reaction, an ELISA was performed based on the detection of the light chain (β2m) of stabilized MHC complexes. The assay was performed as generally described in Rodenko et al. (Rodenko et al., 2006).
96 well MAXISorp plates (NUNC) were coated over night with 2 ug/ml streptavidin in PBS at room temperature, washed 4× and blocked for 1 h at 37° C. in 2% BSA containing blocking buffer. […] Peptide-MHC monomers of the UV-exchange reaction were diluted 100 fold in blocking buffer. Samples were incubated for 1 h at 37° C., washed four times, incubated with 2 ug/ml HRP conjugated anti-β2m for 1h at 37° C., washed again and detected with TMB solution that is stopped with […]. Absorption was measured at 450 nm. Candidate peptides that show a high exchange yield (preferably higher than 50%, most preferred higher than 75%) are generally preferred for a generation and production of antibodies or fragments thereof, and/or T cell receptors or fragments thereof, as they show sufficient avidity to the MHC molecules and prevent dissociation of the MHC complexes.

[2] = test system: CD8+ T cells; test: In vitro immunogenicity: T-cell priming with aAPCs loaded with HLA-A*24 peptide/MHC and anti-CD28, multimer staining; format: cell-based, human; settings: HLA-A*24 peptides; for in vitro immunogenicity, wells: positive wells after priming
Procedure: CD8+ T cells were primed using artificial APCs coated with anti-CD28 mAb and HLA-A*24 in complex with SEQ ID NO: 99 peptide (FIG. 5A, left panel), SEQ ID NO: 119 peptide (FIG. 5B, left panel), SEQ ID NO: 142 peptide (FIG. 5C, left panel) and SEQ ID NO: 174 peptide FIG. 5 (D, left panel), respectively. After three cycles of stimulation, the detection of peptide-reactive cells was performed by 2D multimer staining with A*24/SEQ ID NO: 99 (FIG. 5A), A*24/SEQ ID NO: 119 (FIG. 5B), A*24/SEQ ID NO: 142 (FIG. 5C) or A*24/SEQ ID NO: 174 (FIG. 5D). Right panels (FIGS. 5A,5B,5C and 5D) show control staining of cells stimulated with irrelevant A*24/peptide complexes. Viable singlet cells were gated for CD8+ lymphocytes. Boolean gates helped excluding false-positive events detected with multimers specific for different peptides. Frequencies of specific multimer+ cells among CD8+ lymphocytes are indicated.
Generation of pMHC/anti-CD28 coated beads, T-cell stimulations and readout was performed in a highly defined in vitro system using four different pMHC molecules per stimulation condition and 8 different pMHC molecules per readout condition.
The purified co-stimulatory mouse IgG2a anti human CD28 Ab 9.3 (Jung et al., 1987) was chemically biotinylated using Sulfo-N-hydroxysuccinimidobiotin as recommended by the manufacturer (Perbio, Bonn, Germany). Beads used were 5.6 μm diameter streptavidin coated polystyrene particles (Bangs Laboratories, Illinois, USA).
800.000 beads/200 μl were coated in 96-well plates in the presence of 4×12.5 ng different biotin-pMHC, washed and 600 ng biotin anti-CD28 were added subsequently in a volume of 200 μl. Stimulations were initiated in 96-well plates by co-incubating 1×10^6 CD8+ T cells with 2×10^5 washed coated beads in 200 μl TCM supplemented with 5 ng/ml IL-12 (PromoCell) for 3 days at 37° C. Half of the medium was then exchanged by fresh TCM supplemented with 80 U/ml IL-2 and incubating was continued for 4 days at 37° C. This stimulation cycle was performed for a total of three times. For the pMHC multimer readout using 8 different pMHC molecules per condition, a two-dimensional combinatorial coding approach was used as previously described (Andersen et al., 2012) with minor modifications encompassing coupling to 5 different fluorochromes. Finally, multimeric analyses were performed by staining the cells with Live/dead near IR dye (Invitrogen, Karlsruhe, Germany), CD8-FITC antibody clone SK1 (BD, Heidelberg, Germany) and fluorescent pMHC multimers. For analysis, a BD LSRII SORP cytometer equipped with appropriate lasers and filters was used. Peptide specific cells were calculated as percentage of total CD8+ cells. Evaluation of multimeric analysis was done using the FlowJo software (Tree Star, Oregon, USA). In vitro priming of specific multimer+CD8+ lymphocytes was detected by comparing to negative control stimulations.

[3] = test system: HLA-A*24; test: MHC binding assay, UV-ligand exchange with beta2m ELISA (exchange yield), HLA-A*24; parameters: species or system human; settings: binding to HLA-A*24, UV-ligand exchange
In short: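 Peptide–MHC complexes formed by UV-ligand exchange: a UV-cleavable peptide is replaced by the test peptide, and only binders keep the complex stable. Exchange yield read by streptavidin-capture ELISA on reactions diluted 100-fold, detected with HRP anti-β2m (2 ug/ml, 1 h, 37° C) and TMB at 450 nm.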

Peptide exchange (MHC class I binding score) [1]	Substance	other results
+++ (50%-75% = +++)	83 (ELLEYLPQL; listed as Homo sapiens) [compound 83]	
+++ (50%-75% = +++)	84 (FLEEEITRV; listed as Homo sapiens) [compound 84]	
+++ (50%-75% = +++)	85 (STLDGSLHAV; listed as Homo sapiens) [compound 85]	
+++ (50%-75% = +++)	87 (YLTEVFLHVV; listed as Homo sapiens) [compound 87]	
+++ (50%-75% = +++)	88 (ILLNTEDLASL; listed as Homo sapiens) [compound 88]	
+++ (50%-75% = +++)	89 (YLVAHNLLL; listed as Homo sapiens) [compound 89]	
+ (<20% = +)	90 (GAVAEEVLSSI; listed as Homo sapiens) [compound 90]	
+ (<20% = +)	91 (SSLEPQIQPV; listed as Homo sapiens) [compound 91]	
++ (20%-49% = ++)	92 (LLRGPPVARA; listed as Homo sapiens) [compound 92]	
+++ (50%-75% = +++)	93 (SLLTQPIFL; listed as Homo sapiens) [compound 93]	
	96 (YYTQYSQTI; listed as Homo sapiens) [compound 96]	in vitro immunogenicity, Wells positive [%] [2]: + (<20% = +); Peptide exchange (MHC class I binding score, peptide exchange yield) [3]: ++++ (>=75% = ++++)
	98 (VFPRLHNVLF; listed as Homo sapiens) [compound 98]	in vitro immunogenicity, Wells positive [%] [2]: + (<20% = +); Peptide exchange (MHC class I binding score, peptide exchange yield) [3]: +++ (50%-75% = +++)
	99 (QYILAVPVL; listed as Homo sapiens) [compound 99]	in vitro immunogenicity, Wells positive [%] [2]: +++ (50%-69% = +++); Peptide exchange (MHC class I binding score, peptide exchange yield) [3]: ++++ (>=75% = ++++)
	102 (VYPFENFEF; listed as Homo sapiens) [compound 102]	in vitro immunogenicity, Wells positive [%] [2]: +++ (50%-69% = +++); Peptide exchange (MHC class I binding score, peptide exchange yield) [3]: +++ (50%-75% = +++)
	103 (NYIPVKNGKQF; listed as Homo sapiens) [compound 103]	in vitro immunogenicity, Wells positive [%] [2]: + (<20% = +); Peptide exchange (MHC class I binding score, peptide exchange yield) [3]: +++ (50%-75% = +++)
	104 (SYLTWHQQI; listed as Homo sapiens) [compound 104]	in vitro immunogenicity, Wells positive [%] [2]: + (<20% = +); Peptide exchange (MHC class I binding score, peptide exchange yield) [3]: ++++ (>=75% = ++++)
	105 (IYNETITDLL; listed as Homo sapiens) [compound 105]	in vitro immunogenicity, Wells positive [%] [2]: + (<20% = +); Peptide exchange (MHC class I binding score, peptide exchange yield) [3]: +++ (50%-75% = +++)
	106 (IYNETVRDLL; listed as Homo sapiens) [compound 106]	in vitro immunogenicity, Wells positive [%] [2]: + (<20% = +); Peptide exchange (MHC class I binding score, peptide exchange yield) [3]: +++ (50%-75% = +++)
	107 (KYFPYLVVI; listed as Homo sapiens) [compound 107]	in vitro immunogenicity, Wells positive [%] [2]: ++ (20%-49% = ++); Peptide exchange (MHC class I binding score, peptide exchange yield) [3]: +++ (50%-75% = +++)
	109 (LFITGGQFF; listed as Homo sapiens) [compound 109]	in vitro immunogenicity, Wells positive [%] [2]: ++ (20%-49% = ++); Peptide exchange (MHC class I binding score, peptide exchange yield) [3]: ++++ (>=75% = ++++)
	110 (SYPKIIEEF; listed as Homo sapiens) [compound 110]	in vitro immunogenicity, Wells positive [%] [2]: ++ (20%-49% = ++); Peptide exchange (MHC class I binding score, peptide exchange yield) [3]: +++ (50%-75% = +++)
+++ (50%-75% = +++)	321 (SLWFKPEEL; listed as Homo sapiens) [compound 321]	

Peptide exchange (MHC class I binding score) [1]	Substance	other results
+++ (50%-75% = +++)	323 (ILSVVNSQL; listed as Homo sapiens) [compound 323]	
++++ (>=75% = ++++)	324 (AIFDFCPSV; listed as Homo sapiens) [compound 324]	
++ (20%-49% = ++)	325 (RLLPKVQEV; listed as Homo sapiens) [compound 325]	
+++ (50%-75% = +++)	326 (SLLPLVWKI; listed as Homo sapiens) [compound 326]	
+++ (50%-75% = +++)	327 (SIGDIFLKY; listed as Homo sapiens) [compound 327]	
++ (20%-49% = ++)	328 (SVDSAPAAV; listed as Homo sapiens) [compound 328]	
++ (20%-49% = ++)	329 (FAWEPSFRDQV; listed as Homo sapiens) [compound 329]	
+++ (50%-75% = +++)	330 (FLWPKEVEL; listed as Homo sapiens) [compound 330]	
+++ (50%-75% = +++)	333 (GTFLEGVAK; listed as Homo sapiens) [compound 333]	
+++ (50%-75% = +++)	334 (GRADALRVL; listed as Homo sapiens) [compound 334]	
++ (20%-49% = ++)	335 (VLLAAGPSAA; listed as Homo sapiens) [compound 335]	
++ (20%-49% = ++)	336 (GLMDGSPHFL; listed as Homo sapiens) [compound 336]	
+++ (50%-75% = +++)	337 (KVLGKIEKV; listed as Homo sapiens) [compound 337]	
++ (20%-49% = ++)	338 (LLYDGKLSSA; listed as Homo sapiens) [compound 338]	
++ (20%-49% = ++)	339 (VLGPGPPPL; listed as Homo sapiens) [compound 339]	
++ (20%-49% = ++)	340 (SVAKTILKR; listed as Homo sapiens) [compound 340]	
	393 (KYIEAIQWI; listed as Homo sapiens) [compound 393]	in vitro immunogenicity, wells [2]: ++ (20%-49% = ++)
	399 (SYIDVLPEF; listed as Homo sapiens) [compound 399]	in vitro immunogenicity, wells [2]: ++ (20%-49% = ++)
	400 (KYLEKYYNL; listed as Homo sapiens) [compound 400]	in vitro immunogenicity, wells [2]: ++ (20%-49% = ++)
	407 (VYGIRLEHF; listed as Homo sapiens) [compound 407]	in vitro immunogenicity, wells [2]: +++ (50%-69% = +++)
	414 (MYPYIYHVL; listed as Homo sapiens) [compound 414]	in vitro immunogenicity, wells [2]: ++ (20%-49% = ++)
